Laboratory results taken from patent publication US20170190753A1 (LABORATOIRE FRANCAIS DU FRACTIONNEMENT ET DES …, published 2017).
Blank lines part the entries; values can stand above or below the binder they belong to.

Molecular target: C3 convertase complex (UniProt P01024 23-1663; P00751 260-764)
Assay: cell-based or functional assay
Throughout, for C3 convertase activity % of the control: test concentration or dose not given here.

Sequence of C3 convertase complex (P01024 23-1663, chain 1 of 2): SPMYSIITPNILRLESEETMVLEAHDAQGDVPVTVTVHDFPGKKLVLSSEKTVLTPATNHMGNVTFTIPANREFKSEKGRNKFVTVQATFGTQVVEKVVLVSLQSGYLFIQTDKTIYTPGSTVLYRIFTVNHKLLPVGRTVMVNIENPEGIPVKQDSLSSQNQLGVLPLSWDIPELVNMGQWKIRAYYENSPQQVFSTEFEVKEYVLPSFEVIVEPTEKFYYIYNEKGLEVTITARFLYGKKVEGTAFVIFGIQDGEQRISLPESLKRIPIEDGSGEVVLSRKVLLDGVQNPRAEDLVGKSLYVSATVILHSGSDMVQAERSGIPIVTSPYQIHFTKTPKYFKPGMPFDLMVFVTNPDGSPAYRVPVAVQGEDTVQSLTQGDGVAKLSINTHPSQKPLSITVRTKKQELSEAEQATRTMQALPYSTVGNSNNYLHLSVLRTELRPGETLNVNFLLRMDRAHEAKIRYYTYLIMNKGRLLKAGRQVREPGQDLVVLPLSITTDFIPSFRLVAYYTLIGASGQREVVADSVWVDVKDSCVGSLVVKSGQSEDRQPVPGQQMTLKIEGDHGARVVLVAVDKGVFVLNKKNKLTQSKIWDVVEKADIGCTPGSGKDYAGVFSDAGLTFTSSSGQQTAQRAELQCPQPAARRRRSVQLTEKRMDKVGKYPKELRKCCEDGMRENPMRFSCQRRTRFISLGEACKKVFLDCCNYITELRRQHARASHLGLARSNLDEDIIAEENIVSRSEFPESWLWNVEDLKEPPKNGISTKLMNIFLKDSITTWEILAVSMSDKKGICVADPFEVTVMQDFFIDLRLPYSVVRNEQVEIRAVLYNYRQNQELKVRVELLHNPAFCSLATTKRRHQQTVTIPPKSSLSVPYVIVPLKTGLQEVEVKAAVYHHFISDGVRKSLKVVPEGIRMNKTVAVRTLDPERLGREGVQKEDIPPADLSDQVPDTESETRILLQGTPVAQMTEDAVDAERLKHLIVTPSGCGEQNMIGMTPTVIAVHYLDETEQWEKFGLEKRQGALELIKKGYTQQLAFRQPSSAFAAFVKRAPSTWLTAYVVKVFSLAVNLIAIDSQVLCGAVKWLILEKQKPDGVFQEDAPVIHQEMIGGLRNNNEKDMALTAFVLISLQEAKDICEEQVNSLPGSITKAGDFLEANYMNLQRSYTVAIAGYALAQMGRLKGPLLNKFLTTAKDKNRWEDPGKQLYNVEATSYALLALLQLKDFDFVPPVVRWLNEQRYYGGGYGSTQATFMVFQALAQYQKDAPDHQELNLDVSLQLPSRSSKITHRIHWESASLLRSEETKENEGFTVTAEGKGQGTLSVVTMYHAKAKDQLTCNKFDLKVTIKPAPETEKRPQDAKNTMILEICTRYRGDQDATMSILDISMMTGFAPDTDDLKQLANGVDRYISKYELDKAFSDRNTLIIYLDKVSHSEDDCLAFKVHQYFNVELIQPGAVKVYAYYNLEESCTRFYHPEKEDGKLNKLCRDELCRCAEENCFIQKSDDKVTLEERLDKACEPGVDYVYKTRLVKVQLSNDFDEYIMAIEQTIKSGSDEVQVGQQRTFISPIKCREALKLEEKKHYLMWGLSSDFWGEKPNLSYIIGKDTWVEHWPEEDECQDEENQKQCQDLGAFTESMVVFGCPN
Sequence of C3 convertase complex (P00751 260-764, chain 2 of 2): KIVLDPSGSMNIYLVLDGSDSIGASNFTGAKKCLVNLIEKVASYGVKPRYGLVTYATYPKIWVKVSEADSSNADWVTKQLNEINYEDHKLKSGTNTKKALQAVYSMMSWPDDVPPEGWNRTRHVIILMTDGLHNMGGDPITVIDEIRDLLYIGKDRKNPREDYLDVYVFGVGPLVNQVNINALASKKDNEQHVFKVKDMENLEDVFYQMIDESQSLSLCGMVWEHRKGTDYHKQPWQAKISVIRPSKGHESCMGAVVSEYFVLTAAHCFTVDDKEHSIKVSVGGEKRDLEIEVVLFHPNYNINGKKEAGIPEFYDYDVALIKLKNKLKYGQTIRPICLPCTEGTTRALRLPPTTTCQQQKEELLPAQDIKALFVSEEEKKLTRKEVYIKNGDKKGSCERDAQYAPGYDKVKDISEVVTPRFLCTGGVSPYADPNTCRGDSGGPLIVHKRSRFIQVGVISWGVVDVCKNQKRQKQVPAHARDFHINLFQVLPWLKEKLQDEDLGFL

C3 convertase activity % of the control: 7 % of the control | C3 convertase activity IC50: 2.04 µg/mL
B1: pCEP4-1NT7-12CT20 (other)
chain: EDCNELPPRRNTEILTGSWSDQTYPEGTQAIYKCRPGYRSLGNVIMVCRKGEWVALNPLRKCQKRPCGHPGDTPFGTFTLTGGNVFEYGVKAVYTCNEGYQLLGEINYRECDTDGWTNDIPICEVVKCLPVTAPENGKIVSSAMEPDREYHFGQAVRFVCNSGYKIEGDEEMHCSDDGFWSKEKPKCVEISCKSPDVINGSPISQKIIYKENERFQYKCNMGYEYSERGDAVCTESGWRPLPSCEEKSCDNPYIPNGDYSPLRIKHRTGDEITYQCRNGFYPATRGNTAKCTSTGWIPAPRCTLKPCDYPDIKHGGLYHENMRRPYFPVAVGKYYSYYCDEHFETPSGSYWDHIHCTQDGWSPAVPCLRKCYFPYLENGYNQNYGRKFVQGKSIDVACHPGYALPKAQTTVTCMENGWSPTPRCIRVKTGASGCGDIPELEHGWAQLSSPPYYYGDSVEFNCSESFTMIGHRSITCIHGVWTQLPQCVAIDKLKKCKSSNLIILEEHLKNKKEFDHNSNIRYRCRGKEGWIHTVCINGRWDPEVNCSMAQIQLCPPPPQIPNSHNMTTTLNYRDGEKVSVLCQENYLIQEGEEITCKDGRWQSIPLCVEKIPCSQPPQIEHGTINSSRSSQESYAHGTKLSYTCEGGFRISEENETTCYMGKWSSPPQCEGLPCKSPPEISHGVVAHMSDSYQYGEEVTYKCFEGFGIDGPAIAKCLGEKWSHPPSCIKTDCLSLPSFENAIPMGEKKDVYKAGEQVTYTCATYYKMDGASNVTCINSRWTGRPTCRDTSCVNPPTVQNAYIVSRQMSKYPSGERVRYQCRSPYEMFGDEEVMCLNGNWTEPPQCKDSTGKCGPPPPIDNGDITSFPLSVYAPASSVEYQCQNLYQLEGNKRITCRNGQWSEPPKCLHPCVISREIMENYNIALRWTAKQKLYSRTGESVEFVCKRGYRLSSRSHTLRTTCWDGKLEYPTCAKRGGSGHHHHHH

C3 convertase activity % of the control: 12 % of the control | C3 convertase activity IC50: 1.09 µg/mL
B2: pCEP4-1NT7-19CT20 (other)
chain: EDCNELPPRRNTEILTGSWSDQTYPEGTQAIYKCRPGYRSLGNVIMVCRKGEWVALNPLRKCQKRPCGHPGDTPFGTFTLTGGNVFEYGVKAVYTCNEGYQLLGEINYRECDTDGWTNDIPICEVVKCLPVTAPENGKIVSSAMEPDREYHFGQAVRFVCNSGYKIEGDEEMHCSDDGFWSKEKPKCVEISCKSPDVINGSPISQKIIYKENERFQYKCNMGYEYSERGDAVCTESGWRPLPSCEEKSCDNPYIPNGDYSPLRIKHRTGDEITYQCRNGFYPATRGNTAKCTSTGWIPAPRCTLKPCDYPDIKHGGLYHENMRRPYFPVAVGKYYSYYCDEHFETPSGSYWDHIHCTQDGWSPAVPCLRKCYFPYLENGYNQNYGRKFVQGKSIDVACHPGYALPKAQTTVTCMENGWSPTPRCIRVKTGASGCGPPPPIDNGDITSFPLSVYAPASSVEYQCQNLYQLEGNKRITCRNGQWSEPPKCLHPCVISREIMENYNIALRWTAKQKLYSRTGESVEFVCKRGYRLSSRSHTLRTTCWDGKLEYPTCAKRGGSGHHHHHH

C3 convertase activity % of the control: 10 % of the control | C3 convertase activity IC50: 0.74 µg/mL
B3: pCEP4-1NT11-15CT20 (other)
chain: EDCNELPPRRNTEILTGSWSDQTYPEGTQAIYKCRPGYRSLGNVIMVCRKGEWVALNPLRKCQKRPCGHPGDTPFGTFTLTGGNVFEYGVKAVYTCNEGYQLLGEINYRECDTDGWTNDIPICEVVKCLPVTAPENGKIVSSAMEPDREYHFGQAVRFVCNSGYKIEGDEEMHCSDDGFWSKEKPKCVEISCKSPDVINGSPISQKIIYKENERFQYKCNMGYEYSERGDAVCTESGWRPLPSCEEKSCDNPYIPNGDYSPLRIKHRTGDEITYQCRNGFYPATRGNTAKCTSTGWIPAPRCTLKPCDYPDIKHGGLYHENMRRPYFPVAVGKYYSYYCDEHFETPSGSYWDHIHCTQDGWSPAVPCLRKCYFPYLENGYNQNHGRKFVQGKSIDVACHPGYALPKAQTTVTCMENGWSPTPRCIRVKTCSKSSIDIENGFISESQYTYALKEKAKYQCKLGYVTADGETSGSITCGKDGWSAQPTCIKSCDIPVFMNARTKNDFTWFKLNDTLDYECHDGYESNTGSTTGSIVCGYNGWSDLPICYERECELPKIDVHLVPDRKKDQYKVGEVLKFSCKPGFTIVGPNSVQCYHFGLSPDLPICKEQVQSCGPPPELLNGNVKEKTKEEYGHSEVVEYYCNPRFLMKGPNKIQCVDGEWTTLPVCIVEESTGASGCSQPPQIEHGTINSSRSSQESYAHGTKLSYTCEGGFRISEENETTCYMGKWSSPPQCEGLPCKSPPEISHGVVAHMSDSYQYGEEVTYKCFEGFGIDGPAIAKCLGEKWSHPPSCIKTDCLSLPSFENAIPMGEKKDVYKAGEQVTYTCATYYKMDGASNVTCINSRWTGRPTCRDTSCVNPPTVQNAYIVSRQMSKYPSGERVRYQCRSPYEMFGDEEVMCLNGNWTEPPQCKDSTGKCGPPPPIDNGDITSFPLSVYAPASSVEYQCQNLYQLEGNKRITCRNGQWSEPPKCLHPCVISREIMENYNIALRWTAKQKLYSRTGESVEFVCKRGYRLSSRSHTLRTTCWDGKLEYPTCAKRGGSGHHHHHH

C3 convertase activity % of the control: 107 % of the control | C3 convertase activity IC50: 0.338 µg/mL
B4: pCEP4-1NT8-10CT20 (other)
chain: EDCNELPPRRNTEILTGSWSDQTYPEGTQAIYKCRPGYRSLGNVIMVCRKGEWVALNPLRKCQKRPCGHPGDTPFGTFTLTGGNVFEYGVKAVYTCNEGYQLLGEINYRECDTDGWTNDIPICEVVKCLPVTAPENGKIVSSAMEPDREYHFGQAVRFVCNSGYKIEGDEEMHCSDDGFWSKEKPKCVEISCKSPDVINGSPISQKIIYKENERFQYKCNMGYEYSERGDAVCTESGWRPLPSCEEKSCDNPYIPNGDYSPLRIKHRTGDEITYQCRNGFYPATRGNTAKCTSTGWIPAPRCTLKPCDYPDIKHGGLYHENMRRPYFPVAVGKYYSYYCDEHFETPSGSYWDHIHCTQDGWSPAVPCLRKCYFPYLENGYNQNYGRKFVQGKSIDVACHPGYALPKAQTTVTCMENGWSPTPRCIRVKTCSKSSIDIENGFISESQYTYALKEKAKYQCKLGYVTADGETSGSITCGKDGWSAQPTCIKSGASGCELPKIDVHLVPDRKKDQYKVGEVLKFSCKPGFTIVGPNSVQCYHFGLSPDLPICKEQVQSCGPPPELLNGNVKEKTKEEYGHSEVVEYYCNPRFLMKGPNKIQCVDGEWTTLPVCIVEESTCGDIPELEHGWAQLSSPPYYYGDSVEFNCSESFTMIGHRSITCIHGVWTQLPQCVAIDKLKKCKSSNLIILEEHLKNKKEFDHNSNIRYRCRGKEGWIHTVCINGRWDPEVNCSMAQIQLCPPPPQIPNSHNMTTTLNYRDGEKVSVLCQENYLIQEGEEITCKDGRWQSIPLCVEKIPCSQPPQIEHGTINSSRSSQESYAHGTKLSYTCEGGFRISEENETTCYMGKWSSPPQCEGLPCKSPPEISHGVVAHMSDSYQYGEEVTYKCFEGFGIDGPAIAKCLGEKWSHPPSCIKTDCLSLPSFENAIPMGEKKDVYKAGEQVTYTCATYYKMDGASNVTCINSRWTGRPTCRDTSCVNPPTVQNAYIVSRQMSKYPSGERVRYQCRSPYEMFGDEEVMCLNGNWTEPPQCKDSTGKCGPPPPIDNGDITSFPLSVYAPASSVEYQCQNLYQLEGNKRITCRNGQWSEPPKCLHPCVISREIMENYNIALRWTAKQKLYSRTGESVEFVCKRGYRLSSRSHTLRTTCWDGKLEYPTCAKRGGSGHHHHHH

C3 convertase activity % of the control: 8 % of the control | C3 convertase activity IC50: 1.21 µg/mL
B5: pCEP4-1NT11-16CT20 (other)
chain: EDCNELPPRRNTEILTGSWSDQTYPEGTQAIYKCRPGYRSLGNVIMVCRKGEWVALNPLRKCQKRPCGHPGDTPFGTFTLTGGNVFEYGVKAVYTCNEGYQLLGEINYRECDTDGWTNDIPICEVVKCLPVTAPENGKIVSSAMEPDREYHFGQAVRFVCNSGYKIEGDEEMHCSDDGFWSKEKPKCVEISCKSPDVINGSPISQKIIYKENERFQYKCNMGYEYSERGDAVCTESGWRPLPSCEEKSCDNPYIPNGDYSPLRIKHRTGDEITYQCRNGFYPATRGNTAKCTSTGWIPAPRCTLKPCDYPDIKHGGLYHENMRRPYFPVAVGKYYSYYCDEHFETPSGSYWDHIHCTQDGWSPAVPCLRKCYFPYLENGYNQNHGRKFVQGKSIDVACHPGYALPKAQTTVTCMENGWSPTPRCIRVKTCSKSSIDIENGFISESQYTYALKEKAKYQCKLGYVTADGETSGSITCGKDGWSAQPTCIKSCDIPVFMNARTKNDFTWFKLNDTLDYECHDGYESNTGSTTGSIVCGYNGWSDLPICYERECELPKIDVHLVPDRKKDQYKVGEVLKFSCKPGFTIVGPNSVQCYHFGLSPDLPICKEQVQSCGPPPELLNGNVKEKTKEEYGHSEVVEYYCNPRFLMKGPNKIQCVDGEWTTLPVCIVEESTGASGCKSPPEISHGVVAHMSDSYQYGEEVTYKCFEGFGIDGPAIAKCLGEKWSHPPSCIKTDCLSLPSFENAIPMGEKKDVYKAGEQVTYTCATYYKMDGASNVTCINSRWTGRPTCRDTSCVNPPTVQNAYIVSRQMSKYPSGERVRYQCRSPYEMFGDEEVMCLNGNWTEPPQCKDSTGKCGPPPPIDNGDITSFPLSVYAPASSVEYQCQNLYQLEGNKRITCRNGQWSEPPKCLHPCVISREIMENYNIALRWTAKQKLYSRTGESVEFVCKRGYRLSSRSHTLRTTCWDGKLEYPTCAKRGGSGHHHHHH

C3 convertase activity % of the control: 7 % of the control | C3 convertase activity IC50: 1.93 µg/mL
B6: pCEP4-1NT7-13CT20 (other)
chain: EDCNELPPRRNTEILTGSWSDQTYPEGTQAIYKCRPGYRSLGNVIMVCRKGEWVALNPLRKCQKRPCGHPGDTPFGTFTLTGGNVFEYGVKAVYTCNEGYQLLGEINYRECDTDGWTNDIPICEVVKCLPVTAPENGKIVSSAMEPDREYHFGQAVRFVCNSGYKIEGDEEMHCSDDGFWSKEKPKCVEISCKSPDVINGSPISQKIIYKENERFQYKCNMGYEYSERGDAVCTESGWRPLPSCEEKSCDNPYIPNGDYSPLRIKHRTGDEITYQCRNGFYPATRGNTAKCTSTGWIPAPRCTLKPCDYPDIKHGGLYHENMRRPYFPVAVGKYYSYYCDEHFETPSGSYWDHIHCTQDGWSPAVPCLRKCYFPYLENGYNQNYGRKFVQGKSIDVACHPGYALPKAQTTVTCMENGWSPTPRCIRVKTGASGCKSSNLIILEEHLKNKKEFDHNSNIRYRCRGKEGWIHTVCINGRWDPEVNCSMAQIQLCPPPPQIPNSHNMTTTLNYRDGEKVSVLCQENYLIQEGEEITCKDGRWQSIPLCVEKIPCSQPPQIEHGTINSSRSSQESYAHGTKLSYTCEGGFRISEENETTCYMGKWSSPPQCEGLPCKSPPEISHGVVAHMSDSYQYGEEVTYKCFEGFGIDGPAIAKCLGEKWSHPPSCIKTDCLSLPSFENAIPMGEKKDVYKAGEQVTYTCATYYKMDGASNVTCINSRWTGRPTCRDTSCVNPPTVQNAYIVSRQMSKYPSGERVRYQCRSPYEMFGDEEVMCLNGNWTEPPQCKDSTGKCGPPPPIDNGDITSFPLSVYAPASSVEYQCQNLYQLEGNKRITCRNGQWSEPPKCLHPCVISREIMENYNIALRWTAKQKLYSRTGESVEFVCKRGYRLSSRSHTLRTTCWDGKLEYPTCAKRGGSGHHHHHH
